# B1: REGN10933 (antibody, V domains shown)
# VH: QVQLVESGGGLVKPGGSLRLSCAASGFTFSDYYMSWIRQAPGKGLEWVSYITYSGSTIYYADSVKGRFTISRDNAKSSLYLQMNSLRAEDTAVYYCARDRGTTMVPFDYWGQGTLVTVSS
# VL: DIQMTQSPSSLSASVGDRVTITCQASQDITNYLNWYQQKPGKAPKLLIYAASNLETGVPSRFSGSGSGTDFTFTISGLQPEDIATYYCQQYDNLPLTFGGGTKVEIKR
# B2: REGN10987 (antibody, V domains shown)
# VH: QVQLVESGGGVVQPGRSLRLSCAASGFTFSNYAMYWVRQAPGKGLEWVAVISYDGSNKYYADSVKGRFTISRDNSKNTLYLQMNSLRTEDTAVYYCASGSDYGDYLLVYWGQGTLVTVSS
# VL: QSALTQPASVSGSPGQSITISCTGTSSDVGGYNYVSWYQQHPGKAPKLMIYDVSKRPSGVSNRFSGSKSGNTASLTISGLQSEDEADYYCNSLTSISTWVFGGGTKLTVLR
# Biological target: SARS-CoV-2 WT Spike (SARS-CoV-2, UniProt P0DTC2 14-1208)
# Assay: BLI
row,Binder,Kd
1,B1,< 0.01 nM
2,B2,< 0.01 nM
